Assay results reported in patent US20200141935A1, “SYSTEM, METHOD, APPARATUS AND DIAGNOSTIC TEST FOR PREGNANCY” (BARCELONA INSTITUTE FOR GLOBAL HEALTH, priority 2017, published 2020).

What was measured:
P. falciparum = experiment: Prevalence of infection by qPCR at delivery by intermittent preventive treatment group; assay type: in vivo, pregnant women; conditions: for PCR prevalence of infection (%): by IPTp group
Protocol: All women included in the study received bed nets treated with long-lasting insecticide. At delivery, HIV serostatus was assessed using a rapid diagnostic test and hemoglobin was determined in capillary blood sample using mobile devices (HemoCue, Hemocontrol and Sysmex KX analyzer). Tissue samples from the maternal side of the placenta, as well as maternal peripheral-, placental-blood samples were collected at delivery. Dried blood spots onto filter paper were prepared (50 ul) and blood was collected into EDTA vacutainers and centrifuged, with the plasma stored at −20° C. […] Clinical malaria episodes were treated according to national guidelines at the time of the study. Biases due to pooling of data from these two clinical trials were minimized by the use of similar protocols and procedures during the two trials. […] P. falciparum infection at delivery was defined if peripheral or placental blood samples were positive by microscopy or qPCR or if histology positive (active or chronic). Infection during pregnancy was defined if peripheral or placental blood samples were positive by microscopy or qPCR at any time-point of collection, if P. falciparum detected by hospital passive case detection (PCD), or if histology positive (active, chronic or past) on the sub-set of women from longitudinal cohort. Seroprevalences between countries (Benin, Gabon and Mozambique for HIV-uninfected and Kenya and Mozambique for HIV-infected), between IPTp intervention group (MQ vs SP for HIV-uninfected and MQ vs Placebo for HIV infected) and anemia status were compared by logistic regression models adjusted by parity, age and treatment.

IgG [1] = experiment: Multiplex bead-based immunoassay (Luminex): IgG levels (nMFI) against antigens, compared between groups; assay type: binding, pregnant women
Source text: (§1) Two multiplex suspension array panels were constructed to quantify IgG responses against P. falciparum recombinant proteins and synthetic peptides, using the xMAP™ technology and the Luminex® 100/200™ System (Luminex® Corp., Austin, Tex.). MagPlex® microspheres (magnetic carboxylated polystyrene microparticles, 5.6 μm) with different spectral signatures were selected for each protein (DBL3X, DBL5ϵ, DBL6ϵ, AMA1 and MSP119), peptides (25 VAR2CSA peptides and pCSP), tetanus toxin and bovine serum albumin (BSA). Antigens were covalently coupled to beads following a modification of the Luminex® Corporation protocol. Protein and peptide multiplex arrays were prepared by pooling together equal volumes of coated beads. Plasma samples or the product of DBS elution were analyzed in duplicate at dilution 1:400 for the protein array and 1:100 for the peptide array. A hyperimmune plasma pool composed by 23 plasmas from malaria infected Mozambican pregnant women (HIP-VAR2CSA) was included in each assay plate, in addition to blanks (wells without sample) to assess background levels. A minimum of 50 microspheres were read per spectral signature and results were exported as crude median fluorescent intensity ([…]). Duplicates were averaged and background MFIs were subtracted. A total of 224 plates were analyzed and the intra-assay variation (mean CV of replicates from 20 plasma samples per plate) ranged from 1.4% to 7.3% for the protein array and from 2.5% to 12.4% for the peptide array. The inter-assay variation (variability of positive pool [HIP-VAR2CSA] between 224 plates) was 5% for the protein array and 26% for the peptide array. Results were normalized (nMFI) to account for plate-to-plate variation by […] the background subtracted MFI of each sample with the value of the positive pool in the same plate and dividing by the median of positive pools in all plates.
(§2) Antibodies were eluted from DBS from Gabon, […] and Kenya, as previously described. Briefly, to achieve a concentration of eluted blood proteins equivalent to a 1:50 plasma dilution antibodies were eluted from four spots of approximately 3 mm in diameter with 200 μl Luminex® assay buffer (1% BSA, 0.05% sodium azide in filtrated PBS [Phosphate-buffered saline]). […]. Controls blood drops were artificially prepared using fresh erythrocytes (blood type 0, assuming a hematocrit approximately of 50%) and freeze plasma from 49 Spanish pregnant women. Filter papers were stored avoiding humidity at −20° C. in Barcelona.
(§3) Presence or absence of antibodies was defined by finite mixture models (FMM) for pregnancy-specific antigens (VAR2CSA peptides and recombinant domains) and by the mean plus 3 standard deviation (SD) of IgG response from pregnant women from Barcelona for general malaria antigens (AMA1, MSP119, and pCSP).
(§4) Data was fitted to a normal distribution by logarithmic transformation of nMFIs. Participant's baseline characteristics and parasitological outcomes were compared between study times and areas by univariate analysis (Fisher's tests for binary outcomes or t-Student test for continuous outcomes). Responses were considered not restricted to malaria when seroprevalences were 5% or high among Spanish pregnant women.
Linear regression models were used to compare antibody levels from Mozambican and Spanish pregnant women. The capacity of antibody levels to mimic malaria trends in Mozambique was analyzed by linear regression models (2010 was compared with 2003-2005 corresponding to a trend of malaria decrease and 2011-2012 with 2010 to a trend of increase) adjusted by treatment, parity, age and HIV.
The impact of P. falciparum infection during pregnancy on antibodies at delivery was assessed in linear regression models adjusted by age, parity, HIV and treatment. Changes in antibody levels due to parasite density (below or above 200) were assessed by linear regression models adjusted by age, parity, HIV and treatment. […]

IgG [2] = experiment: Multiplex bead-based immunoassay: seroprevalence (finite mixture models or negative control cutoff); assay type: binding, pregnant women; conditions: for Seroprevalence MQ (%): IPTp with mefloquine; for Seroprevalence Non-A (%): non anemia
Source text: as §1, §2, §3, §4
Seroprevalences between countries (Benin, Gabon and Mozambique for HIV-uninfected and Kenya and Mozambique for HIV-infected), between IPTp intervention group (MQ vs SP for HIV-uninfected and MQ vs Placebo for HIV infected) and anemia status were compared by logistic regression models adjusted by parity, age and treatment.
The modification of the associations by HIV infection or parity was assessed by including interaction terms into the regression models.

IgG [3] = experiment: Antibody dynamics during pregnancy (time to double, half-life, sero-reversion) from bead-based immunoassay; assay type: binding, pregnant Mozambican women
Source text: as §1
The adjusted effect of infection on antibody levels was analyzed using log-linear mixed-effects regression models incorporating Gaussian random intercepts. […] Time to double the antibody levels (T2x) and half-lives were calculated in weeks from the estimated rates and the boundaries at 95% confidence interval obtained from mixed-effects models for subjects suffering a P. falciparum infection at follow-up independent of antibody status at recruitment (Ab[−or+]/Pf+) and subjects seropositive at recruitment and no infection detected on follow-up (Ab+/Pf−), respectively. In situations that the increase rate is a negative value (rate below 1) or the decay rate is a positive value (rate above 1), the calculated T2x or half-life was reported as infinity. Similarly, the time to sero-reversion was calculated for these subjects using the ratio of the seropositivity cutoff by the average antibody titers at recruitment as decay, i.e. how many times the average titers need to be reduced to be equal the cutoff.

[4] = HIV uninfected, qPCR in peripheral and placental blood at delivery

OC(c1cc(C(F)(F)F)nc2c(C(F)(F)F)cccc12)C1CCCCN1 (stereo not drawn) [MQ, mefloquine]
PCR MQ (OR) (P. falciparum; HIV infected, MQ with Placebo as reference): 0.24 (0.10; 0.59)
PCR prevalence of infection (%) (P. falciparum; HIV infected, qPCR at delivery): 2%
PCR prevalence of infection (%) (P. falciparum; [4]): 18%

sulfadoxine-pyrimethamine [SP]
PCR SP (OR) (P. falciparum; HIV uninfected, SP with MQ as reference): 1.93 (1.28; 2.91)
PCR prevalence of infection (%) (P. falciparum; [4]): 27%

B1: AMA1: recombinant apical membrane antigen 1, from 3D7 strain (protein)
chain: QNYWEHPYQNSDVYRPINEHREHPKEYEYPLHQEHTYQQEDSGEDENTLQHAYPIDHEGAEPAPQEQNLFSSIEIVERSNYMGNPWTEYMAKYDIEEVHGSGIRVDLGEDAEVAGTQYRLPSGKCPVFGKGIIIENSNTTFLTPVATGNQYLKDGGFAFPPTEPLMSPMTLDEMRHFYKDNKYVKNLDELTLCSRHAGNMIPDNDKNSNYKYPAVYDDKDKKCHILYIAAQENNGPRYCNKDESKRNSMFCFRPAKDISFQNYTYLSKNVVDNWEKVCPRKNLQNAKFGLWVDGNCEDIPHVNEFPAIDLFECNKLVFELSASDQPKQYEQHLTDYEKIKEGFKNKNASMIKSAFLPTGAFKADRYKSHGKGYNWGNYNTETQKCEIFNVKPTCLINNSSYIATTALSHPIEVENNFPCSLYKDEIMKEIERESKRIKLNDNDDEGNKKIIAPRIFISDDKDSLKCPCDPEMVSNSTCRFFVCKCVERRAEVTSNNEVVVKEEYKDEYADIPEHKPTYDKMK
Immunoreactivity: recognition by IgGs at levels above BSA recognition (IgG [1]; 641 pregnant Mozambican women 2003-2012, mean nMFI above mean BSA nMFI plus 3 SD): above BSA recognition
Infection during pregnacy Infection vs no-infection ratio (95% CI) (IgG [1]; nMFI at delivery, Mozambican women followed 2011-2012, adjusted): 1.8 (1.30; 2.50)
Parity MG vs PG ratio (95% CI) (IgG [1]; nMFI at delivery, multigravid vs primigravid Mozambican women, adjusted): 1.2 (0.76; 1.9)
Exposure dependence Increase 2011-2012 vs 2010 Ratio (95% CI) (IgG [1]; nMFI ratio at delivery, Mozambique, adjusted by parity, age, treatment and HIV): 0.88 (0.73; 1.07)
PW Mz vs PW Bcn Ratio (95% CI) (IgG [1]; nMFI ratio, pregnant Mozambican women vs pregnant Spanish women (N=49)): 24.51 (18.53; 32.43)
Parasite density Low vs High ratio (95% CI) (IgG [1]; nMFI ratio, below or above 200 genomes per microliter, adjusted): 1.18 (0.96; 1.46)
SeroPrev Delivery % (IgG [2]; 239 pregnant Mozambican women followed 2011-2012): 89%
Seroprevalence MQ (%) (IgG [2]; HIV infected): 92%
Seroprevalence K (%) (IgG [2]; HIV infected, Kenya, at delivery): 95%
MQ (OR) (IgG [2]; HIV infected, MQ, Placebo as reference): 0.6 (0.32; 1.12)
M (OR) (IgG [2]; HIV infected, Mozambique, Kenya as reference): 0.76 (0.40; 1.45)
Seroprevalence M (%) (IgG [2]; HIV infected, Mozambique, at delivery): 93%
Seroprevalence PL (%) (IgG [2]; HIV infected, Placebo group): 95%
Seroprevalence A (%) (IgG [2]; HIV infected, anemia): 92%
A (OR) (IgG [2]; HIV infected, anemia, Non-A as reference): 0.79 (0.41; 1.51)
Seroprevalence Non-A (%) (IgG [2]; HIV infected): 94%
Seroprevalence B (%) (IgG [2]; HIV uninfected, Benin, at delivery): 100%
Seroprevalence G (%) (IgG [2]; HIV uninfected, Gabon, at delivery): 82%
Seroprevalence MQ (%) (IgG [2]; HIV uninfected): 96%
Seroprevalence SP (%) (IgG [2]; HIV uninfected, IPTp with sulfadoxine-pyrimethamine): 96%
Seroprevalence M (%) (IgG [2]; HIV uninfected, Mozambique, at delivery): 93%
Seroprevalence A (%) (IgG [2]; HIV uninfected, anemia): 96%
Seroprevalence Non-A (%) (IgG [2]; HIV uninfected): 96%
Seroprevalence in Tanzania (IgG [2]; HIV-uninfected women, area of Tanzania where no malaria infection was observed): 42%
Seroprevalence 2003/4 (%) (IgG [2]; Mozambican pregnant women at delivery, 2003/4): 99%
Seroprevalence 2005 (%) (IgG [2]; Mozambican pregnant women at delivery, 2005): 98%
Seroprevalence 2010 (%) (IgG [2]; Mozambican pregnant women at delivery, 2010): 93%
Seroprevalence 2011 (%) (IgG [2]; Mozambican pregnant women at delivery, 2011): 89%
Seroprevalence 2012 (%) (IgG [2]; Mozambican pregnant women at delivery, 2012): 92%
SeroPrev PW Bcn (%) (IgG [2]; seroprevalence among pregnant Spanish women never exposed to malaria): 2%
Decrease (OR) (IgG [2]; seroprevalence odds ratio 2010 vs 2003/5, Mozambique, adjusted): 0.24 (0.06; 0.93)
Increase (OR) (IgG [2]; seroprevalence odds ratio 2011/12 vs 2010, Mozambique, adjusted): 0.58 (0.29; 1.16)
Antibody dynamics Sero-revertion weeks (95% CI) (IgG [3]; time to sero-negativisation, seropositive at recruitment, no infection on follow-up): 544.49 (242.56; ∞) weeks
Antibody dynamics Time to double weeks (95% CI) (IgG [3]; women with P. falciparum infection on follow-up, log-linear mixed-effects model): 91.65 (39.61; ∞) weeks
